Laboratory results published in US20260176675.

Target: Eosinophil peroxidase (EPX) (Homo sapiens) (UniProt P11678+P11678)
Experiment: cleavage_in_vitro
Settings: 30 min

Sequence of Eosinophil peroxidase (EPX) (Homo sapiens) (P11678 140-250, chain 1 of 2): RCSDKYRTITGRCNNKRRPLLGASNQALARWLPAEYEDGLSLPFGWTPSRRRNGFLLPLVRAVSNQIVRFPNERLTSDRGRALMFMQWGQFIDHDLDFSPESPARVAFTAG
Sequence of Eosinophil peroxidase (EPX) (Homo sapiens) (P11678 251-715, chain 2 of 2): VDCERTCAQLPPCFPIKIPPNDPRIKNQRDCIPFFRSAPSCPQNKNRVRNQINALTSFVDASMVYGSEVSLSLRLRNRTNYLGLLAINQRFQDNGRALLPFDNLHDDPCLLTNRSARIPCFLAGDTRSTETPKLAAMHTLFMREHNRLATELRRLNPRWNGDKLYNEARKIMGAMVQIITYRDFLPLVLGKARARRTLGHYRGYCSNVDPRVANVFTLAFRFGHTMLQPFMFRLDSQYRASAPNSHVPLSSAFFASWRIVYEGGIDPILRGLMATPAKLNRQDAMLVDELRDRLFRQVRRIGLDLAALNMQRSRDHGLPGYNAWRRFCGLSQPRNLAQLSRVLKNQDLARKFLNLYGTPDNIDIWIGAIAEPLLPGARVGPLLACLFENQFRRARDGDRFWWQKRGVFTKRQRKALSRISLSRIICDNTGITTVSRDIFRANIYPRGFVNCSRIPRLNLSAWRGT

Row | Sequence | activity (single riboadenosine cleavage site in FS flanked by dabcyl-dT (5') and fluorescein-dT (3') [13 dabcyl-dT, 14 riboadenosine (R), 15 fluorescein-dT], 50 nM EPX, selection buffer with 15 mM MgCl2, RT) | Kd (single riboadenosine cleavage site in FS flanked by dabcyl-dT (5') and fluorescein-dT (3') [13 dabcyl-dT, 14 riboadenosine (R), 15 fluorescein-dT], apparent Kd = EPX concentration giving 50% of maximum cleavage, 50 mM HEPES pH 7.5, 150 mM NaCl, 15 mM MgCl2, 0.01% Tween20, RT) | activity (single riboadenosine cleavage site in FS flanked by dabcyl-dT (5') and fluorescein-dT (3'), EPX-activated RNA-cleaving DNAzyme, selection buffer, RT, no cleavage in buffer alone)
1 | CTATGAACTGACTATGACCTCACTACCAAGATGCCATCCTACCAACGGTCGATGGATGAGTAATACAGGCCGGATGGGTACAGTCG [EPDz20M4 ligated to FS (FS-EPDz20M4)] | 18 % cleavage | 30 nM | –
2 | CTATGAACTGACTATGACCTCACTACCAAGATGCCATCCTACCAACGGTCGATGGATGAGTAATACAGGCCGGATGGGTACAGTCGTAATCTATTCGAGCTCTGAACTCG [EPDz20 ligated to FS] | – | – | 15 % cleavage
